The test system of data set [1] is T1, wild type Penicillium oxalicum glucoamylase.
T1 sequence: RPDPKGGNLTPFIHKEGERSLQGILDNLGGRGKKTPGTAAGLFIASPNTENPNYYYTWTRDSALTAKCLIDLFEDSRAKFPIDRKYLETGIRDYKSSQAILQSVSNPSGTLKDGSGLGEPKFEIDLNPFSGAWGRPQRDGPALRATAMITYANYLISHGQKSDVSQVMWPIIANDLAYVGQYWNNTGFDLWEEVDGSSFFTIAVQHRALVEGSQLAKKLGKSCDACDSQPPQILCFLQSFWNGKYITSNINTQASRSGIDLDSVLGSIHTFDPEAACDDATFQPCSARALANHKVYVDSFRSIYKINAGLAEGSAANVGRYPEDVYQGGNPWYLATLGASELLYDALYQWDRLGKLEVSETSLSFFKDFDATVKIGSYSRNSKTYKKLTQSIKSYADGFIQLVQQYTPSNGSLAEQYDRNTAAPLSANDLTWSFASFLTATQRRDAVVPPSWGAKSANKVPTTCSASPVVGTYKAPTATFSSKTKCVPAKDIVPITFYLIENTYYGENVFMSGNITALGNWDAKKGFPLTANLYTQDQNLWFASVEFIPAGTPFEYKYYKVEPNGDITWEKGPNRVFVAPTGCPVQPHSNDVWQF

Data set [2] addresses Penicillium oxalicum glucoamylase variant PE001 (SEQ ID NO: 14 + K79V substitution) (Penicillium oxalicum). Description: cell-based or functional assay.
Data set [3] addresses wild type Penicillium oxalicum glucoamylase (Penicillium oxalicum). Description: cell-based or functional assay.

Take aspergillopepsin I: in data set [1], the “cleaved glucoamylase (ca. 60 kDa) on SDS-PAGE after overnight protease treatment at 32 °C” value was found to be 10%.

As for aorsin, in data set [1], the “cleaved glucoamylase (ca. 60 kDa) on SDS-PAGE after overnight protease treatment at 4 °C” value came to 60% and the “cleaved glucoamylase (ca. 60 kDa) on SDS-PAGE after overnight protease treatment at 32 °C” value is on record as 90%.

Consider aspergillopepsin I (enzyme), for which, in data set [2], the intact glucoamylase (ca. 70 kDa) on SDS-PAGE after overnight protease treatment at 4 °C is 100% and the intact glucoamylase (ca. 70 kDa) on SDS-PAGE after overnight protease treatment at 32 °C was determined as 100%. In data set [3], this substance had an intact glucoamylase (ca. 70 kDa) on SDS-PAGE after overnight protease treatment at 4 °C of 100% and an intact glucoamylase (ca. 70 kDa) on SDS-PAGE after overnight protease treatment at 32 °C of 90%.

Consider aorsin (enzyme), for which, in data set [2], the intact glucoamylase (ca. 70 kDa) on SDS-PAGE after overnight protease treatment at 4 °C amounted to 100% and the intact glucoamylase (ca. 70 kDa) on SDS-PAGE after overnight protease treatment at 32 °C was 100%. In data set [3], this substance showed an intact glucoamylase (ca. 70 kDa) on SDS-PAGE after overnight protease treatment at 4 °C of 40% and an intact glucoamylase (ca. 70 kDa) on SDS-PAGE after overnight protease treatment at 32 °C of 10%.
